B1: IL6R-BF206/IL6R-L (antibody, human IgG1, kappa)
heavy: QVQLQESGPGLVKPSETLSLTCAVSGHSISHDHAWSWVRQPPGEGLEWIGFISYSGITNYNPSLQGRVTISRDNSKNTLYLQMNSLRAEDTAVYYCARSLARTTAMDYWGEGTLVTVSSASTKGPSVFPLAPSSKSTSGGTAALGCLVKDYFPEPVTVSWNSGALTSGVHTFPAVLQSSGLYSLSSVVTVPSSSLGTQTYICNVNHKPSNTKVDKKVEPKSCDKTHTCPPCPAPDLLGGDSVFLFPPKPKDTLMISRTPEVTCVVVDVSHEDGEVKFNWYVDGVEVHNAKTKPREEQYNSTYRVVSVLTVLHQDWLNGKEYKCKVSNKALPRPIEKTISKAKGQPREPQVYTLPPSRDELTKNQVSLTCLVKGFYPSDIAVEWESNGQPENNYKTTPPVLDSDGSFFLYSKLTVDKSRWQQGNVFSCSVMHEALHNHYTQESLSLSP
light: not shown
notes: alteration printed: BB233D/P238D/P271G/A330R; copies: 2 + 2
B2: IL6R-BF205/IL6R-L (antibody, human IgG1, kappa)
heavy: B1 heavy with Y298D
light: not shown
notes: alteration printed: B233D/P298D/P271G/Y296D/A330R; copies: 2 + 2
B3: IL6R-BF207/IL6R-L (antibody, human IgG1, kappa)
heavy: B1 heavy with G273P
light: not shown
notes: alteration printed: B233D/P298D/A330R; copies: 2 + 2
B4: IL6R-BF132/IL6R-L (antibody, human IgG1, kappa)
heavy: B1 heavy with G273P, K328A, R332K
light: not shown
notes: alteration printed: B233D/P236D/K326A/A330K; copies: 2 + 2
B5: IL6R-BF195/IL6R-L (antibody, human IgG1, kappa)
heavy: B1 heavy with L236Y, G239D, H270D, Y298D, K328A, R332K
light: not shown
notes: copies: 2 + 2
B6: IL6R-BF196/IL6R-L (antibody, human IgG1, kappa)
heavy: B1 heavy with D235E, L236Y, H270D, K328A, R332K
light: not shown
notes: alteration printed: L234Y/P236D/H258D/P271G/K326A/A330K; copies: 2 + 2
B7: IL6R-BF180/IL6R-L (antibody, human IgG1, kappa)
heavy: B1 heavy with D235E, G239D, R332K
light: not shown
notes: alteration printed: G237D/P238D/P271G/A330K; copies: 2 + 2
B8: IL6R-BF084/IL6R-L (antibody, human IgG1, kappa)
heavy: B1 heavy with D235E, G273P, V325M, R332K
light: not shown
notes: alteration printed: 9238D/Y325M/A330K; copies: 2 + 2
B9: IL6R-2B251/IL6R-L (antibody, human IgG1, kappa)
heavy: B1 heavy with G273P, Y298D, R332A
light: not shown
notes: alteration printed: B233D/P238D/Y296D; also called ILGR-2B261/IL6R-L; copies: 2 + 2
B10: IL6R-BP142/IL6R-L (antibody, human IgG1, kappa)
heavy: B1 heavy with D235E, G273P, K328N, R332A
light: not shown
notes: IgG1; P238D/K326N (EU) introduced into IL6R-B3
B11: IL6R-BF212/IL6R-L (antibody, human IgG1, kappa)
heavy: B1 heavy with H270D, Y298D
light: not shown
notes: Anti-IL-6 receptor IgG1 Fc variant; 'B233D' is read as E233D
B12: IL6R-BF209/IL6R-L (antibody, human IgG1, kappa)
heavy: B1 heavy with D235E, G239D, H270D, K328A
light: not shown
notes: Anti-IL-6 receptor IgG1 Fc variant

Numbering of substitutions follows the chain as printed. Names and notes keep the numbering of the source.

In one test the target is T1, FcγRIIa type R extracellular domain with C-terminal His tag (human, UniProt P12318 34-217).
T1 chain: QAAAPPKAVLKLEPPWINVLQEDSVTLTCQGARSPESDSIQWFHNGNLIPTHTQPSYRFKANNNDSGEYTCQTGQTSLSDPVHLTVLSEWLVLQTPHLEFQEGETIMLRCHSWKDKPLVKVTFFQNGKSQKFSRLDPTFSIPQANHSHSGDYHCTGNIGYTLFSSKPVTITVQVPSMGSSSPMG
Put plainly: SPR (Biacore), antibody captured, FcgR analyte. From the text: (§1) In the table, SEQ ID NO refers to the SEQ ID NO of the H chain of the evaluated variant, and alteration refers to the alteration introduced into IL6R-B3 (SEQ ID NO: 40). […] Furthermore, KD(IIaR)/KD(IIb) and KD(IIaH)/KD(IIb) in the table respectively represent the value obtained by dividing the KD value of each variant for FcγRIIaR by the KD value of each variant for FcγRIIb, and the value obtained by dividing the KD value of each variant for FcγRIIaH by the KD value of each variant for FcγRIIb. KD(IIb) of the parent polypeptide/KD(IIb) of the altered polypeptide refers to the value obtained by dividing the KD value of the parent polypeptide for FcγRIIb by the KD value of each variant for FcγRIIb.
(§2) Kinetic analyses for calculating the KD values of each altered antibody for FcγR were performed according to the following method. First, antibodies of interest were captured onto the above-mentioned sensor chips, and an Fcγ receptor diluted with the running buffer was allowed to interact. The Biacore™ Evaluation Software was used to globally fit the measured results to the obtained sensorgram using the 1:1 Langmuir binding model, and the association rate constant ka (L/mol/s) and the dissociation rate constant kd (1/s) were calculated; and from those values the dissociation constants KD (mol/L) were calculated.
On the technique in general: Surface plasmon resonance follows binding to a sensor surface in real time, without labels.
Broadly, the Kd is the concentration at which binding is half-saturated. As to B1, the Kd turned out to be 3.1 µM.
In turn, B2 displayed a Kd of 3.5 µM.
Regarding B3, the affinity, expressed as Kd, was 19 µM.
B4 showed a Kd of 8 µM.
The molecule B5 yielded a Kd of 0.91 µM.
Molecule B6 yielded a Kd of 0.03 µM.
Still for that read-out and setting: the result for B7 reads 1.2 µM.

The target in the next test is T2, FcγRIIIa type V extracellular domain with C-terminal His tag (human, UniProt P08637 17-208).
T2 construct: extracellular domain; also called FcIIIaV; FcgRIIIaV; not shown: His tag at the C terminus
T2 sequence (P08637 17-208 F176V): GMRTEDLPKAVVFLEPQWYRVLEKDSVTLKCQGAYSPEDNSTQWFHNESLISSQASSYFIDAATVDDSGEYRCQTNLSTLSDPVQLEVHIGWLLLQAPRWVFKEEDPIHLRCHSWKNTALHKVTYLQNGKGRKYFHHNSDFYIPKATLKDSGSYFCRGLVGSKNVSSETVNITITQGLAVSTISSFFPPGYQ
Put plainly: SPR (Biacore), antibody captured, FcgR analyte.
Excerpt: as §1, §2
In turn, B1 yielded a Kd of 6.9 µM.
B2 gave a Kd of 6.8 µM.
For B4, binding was characterised by a dissociation constant (Kd) of 50 µM.
For B8, the Kd amounted to 6.7 µM.
Regarding B5, the Kd was determined as 3.1 µM.
Same read-out and setting: then B6, with 5.1 µM; and B7, with 7 µM.

Another test deals with T3, FcγRIIb extracellular domain with C-terminal His tag (human, UniProt P31994 43-217).
T3 construct: extracellular domain; also called FcRIIb; FcgRIIb; not shown: His tag at the C terminus
T3 sequence (looked up): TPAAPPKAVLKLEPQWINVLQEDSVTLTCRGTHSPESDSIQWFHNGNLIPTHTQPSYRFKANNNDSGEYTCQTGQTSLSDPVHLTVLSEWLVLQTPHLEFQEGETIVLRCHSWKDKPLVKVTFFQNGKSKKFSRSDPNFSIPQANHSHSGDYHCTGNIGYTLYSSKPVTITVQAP
Put plainly: SPR (Biacore), antibody captured, FcgR analyte.
Excerpt: as §1, §2
Take B9: the Kd was 10 µM.
In turn, B5 yielded a Kd of 50 µM.

The next test concerns the target T4, FcγRIIa type R extracellular domain with C-terminal His tag (human, UniProt P12318 34-217).
T4 construct: extracellular domain; also called FcgRIIaR; FcγRIIa R; not shown: His tag at the C terminus
T4 sequence (looked up): T1 chain
In words: SPR (Biacore), antibody captured on chip, FcγR extracellular domain as analyte.
Excerpt: as §1, §2
B10 registered a Kd of 16 µM. That is a double-digit micromolar value.

In a further test the target is FcγRIIa type R extracellular domain with C-terminal His tag (human, UniProt P12318 34-217). Described as above.
Excerpt: as §1, §2
B11: the Kd stood at 0.035 µM.
Turning to B12, the Kd was determined as 12 µM.

Source of the values: US20230174655A1 (published 2023).
